The target of test [1] is T1, FcγRIIa R (human, UniProt P12318 34-217).
T1 construct: extracellular domain; Soluble extracellular domain with C-terminal His tag, expressed in FreeStyle293 cells; also called FcgRIIa R; FcγRIIa type R; not shown: His tag attached to the C terminus
T1 sequence (looked up): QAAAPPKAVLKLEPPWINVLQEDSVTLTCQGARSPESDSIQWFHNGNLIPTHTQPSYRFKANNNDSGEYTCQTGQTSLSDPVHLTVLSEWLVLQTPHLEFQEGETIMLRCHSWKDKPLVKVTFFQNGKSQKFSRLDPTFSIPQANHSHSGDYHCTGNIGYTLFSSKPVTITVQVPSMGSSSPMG
Description: SPR (Biacore), antibody captured via antigen peptide, FcγRIIa R as analyte; homodimerized antibody. The protocol: (§1) Analysis of interaction between objective antibody and the FcγR was carried out using Biacore T100 (GE Healthcare). HBS-EP+ (GE Healthcare) was used as the running buffer, and the measurement temperature was set to 25° C. Chips produced by immobilizing the antigen peptide by the amine coupling method to a Series S Sencor Chip CM5 (GE Healthcare), or alternatively, chips produced by allowing preliminarily biotinylated antigen peptides to interact with and immobilize onto a Series S Sensor Chip SA (certified) (GE Healthcare) were used. Antibodies of interest were captured onto an antigen peptide-immobilized chip, and allowed to interact to each FcγR diluted with running buffer. To regenerate and repeatedly use the chip, the antibodies captured on the chip were washed off by reacting 10 mM glycine-HCl, pH 1.5.

Test [2] deals with T1, FcγRIIa R. Kind of test: SPR (Biacore), antibody captured via antigen peptide, FcγRIIa R as analyte; heterodimerized antibody. Here is the method:
as §1
In general terms: SPR reads the build-up and loss of mass on a sensor chip optically.

B1: GpH7-B3 variant Y300_04F/GpL16-k0 (antibody, human IgG1, kappa)
heavy: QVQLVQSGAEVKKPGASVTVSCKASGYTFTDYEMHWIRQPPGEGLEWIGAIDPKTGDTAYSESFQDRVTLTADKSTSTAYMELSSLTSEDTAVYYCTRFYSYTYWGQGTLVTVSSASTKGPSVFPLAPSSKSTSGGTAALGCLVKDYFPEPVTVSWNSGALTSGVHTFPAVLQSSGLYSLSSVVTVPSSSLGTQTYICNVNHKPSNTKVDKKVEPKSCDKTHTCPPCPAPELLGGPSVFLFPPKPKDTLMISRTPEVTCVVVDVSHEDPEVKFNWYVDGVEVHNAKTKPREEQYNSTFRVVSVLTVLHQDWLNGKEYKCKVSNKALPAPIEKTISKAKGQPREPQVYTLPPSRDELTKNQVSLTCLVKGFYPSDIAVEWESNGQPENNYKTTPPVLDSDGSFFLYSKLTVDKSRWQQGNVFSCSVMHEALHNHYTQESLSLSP
light: DIVMTQSPLSLPVTPGEPASISCQASESLVHSNRNTYLHWYLQKPGQSPQLLIYKVSNRFSGVPDRFSGSGSGTDFTLKISRVEAEDVGVYYCSQNTHVPPTFGQGTKVEIERTVAAPSVFIFPPSDEQLKSGTASVVCLLNNFYPREAKVQWKVDNALQSGNSQESVTEQDSKDSTYSLSSTLTLSKADYEKHKVYACEVTHQGLSSPVTKSFNRGEC
notes: homodimerized; mutation in both H chains; also called Ho Ab
Regarding B1, the Ho/Con_2aR with FcγRIIa R [1] was 109 % of control (GpH7-B3/GpL16-k0 = 100).

B2: GpH7-A5/GpH7-B3 variant T335_15Y/GpL16-k0 (antibody, human IgG1, kappa)
heavy 1: not shown
heavy 2: not shown
light: DIVMTQSPLSLPVTPGEPASISCQASESLVHSNRNTYLHWYLQKPGQSPQLLIYKVSNRFSGVPDRFSGSGSGTDFTLKISRVEAEDVGVYYCSQNTHVPPTFGQGTKVEIERTVAAPSVFIFPPSDEQLKSGTASVVCLLNNFYPREAKVQWKVDNALQSGNSQESVTEQDSKDSTYSLSSTLTLSKADYEKHKVYACEVTHQGLSSPVTKSFNRGEC
notes: heterodimerized; mutation in one H chain only; also called He Ab
For B2, the He/Con_2aR in the test with FcγRIIa R [2] is 111 % of control (GpH7-A5/GpH7-B3/GpL16-k0 = 100).

B3: GpH7-A5/GpH7-B3 variant G236_10E/GpL16-k0 (antibody, human IgG1, kappa)
heavy 1: not shown
heavy 2: not shown
light: DIVMTQSPLSLPVTPGEPASISCQASESLVHSNRNTYLHWYLQKPGQSPQLLIYKVSNRFSGVPDRFSGSGSGTDFTLKISRVEAEDVGVYYCSQNTHVPPTFGQGTKVEIERTVAAPSVFIFPPSDEQLKSGTASVVCLLNNFYPREAKVQWKVDNALQSGNSQESVTEQDSKDSTYSLSSTLTLSKADYEKHKVYACEVTHQGLSSPVTKSFNRGEC
notes: as for B2
For B3, in the test with FcγRIIa R [2], the He/Con_2aR was 125 % of control (GpH7-A5/GpH7-B3/GpL16-k0 = 100).

B4: GpH7-A5/GpH7-B3 variant H268_09D/GpL16-k0 (antibody, human IgG1, kappa)
heavy 1: not shown
heavy 2: not shown
light: DIVMTQSPLSLPVTPGEPASISCQASESLVHSNRNTYLHWYLQKPGQSPQLLIYKVSNRFSGVPDRFSGSGSGTDFTLKISRVEAEDVGVYYCSQNTHVPPTFGQGTKVEIERTVAAPSVFIFPPSDEQLKSGTASVVCLLNNFYPREAKVQWKVDNALQSGNSQESVTEQDSKDSTYSLSSTLTLSKADYEKHKVYACEVTHQGLSSPVTKSFNRGEC
notes: as for B2
As to B4, in the test with FcγRIIa R [2], the He/Con_2aR was 149 % of control (GpH7-A5/GpH7-B3/GpL16-k0 = 100).

B5: GpH7-A5/GpH7-B3 variant I332_09D/GpL16-k0 (antibody, human IgG1, kappa)
heavy 1: not shown
heavy 2: not shown
light: DIVMTQSPLSLPVTPGEPASISCQASESLVHSNRNTYLHWYLQKPGQSPQLLIYKVSNRFSGVPDRFSGSGSGTDFTLKISRVEAEDVGVYYCSQNTHVPPTFGQGTKVEIERTVAAPSVFIFPPSDEQLKSGTASVVCLLNNFYPREAKVQWKVDNALQSGNSQESVTEQDSKDSTYSLSSTLTLSKADYEKHKVYACEVTHQGLSSPVTKSFNRGEC
notes: as for B2
As for B5, the He/Con_2aR with FcγRIIa R [2] was 119 % of control (GpH7-A5/GpH7-B3/GpL16-k0 = 100).

B6: GpH7-A5/GpH7-B3 variant K326_09D/GpL16-k0 (antibody, human IgG1, kappa)
heavy 1: not shown
heavy 2: not shown
light: DIVMTQSPLSLPVTPGEPASISCQASESLVHSNRNTYLHWYLQKPGQSPQLLIYKVSNRFSGVPDRFSGSGSGTDFTLKISRVEAEDVGVYYCSQNTHVPPTFGQGTKVEIERTVAAPSVFIFPPSDEQLKSGTASVVCLLNNFYPREAKVQWKVDNALQSGNSQESVTEQDSKDSTYSLSSTLTLSKADYEKHKVYACEVTHQGLSSPVTKSFNRGEC
notes: as for B2
Turning to B6, in the test with FcγRIIa R [2], the He/Con_2aR was 148 % of control (GpH7-A5/GpH7-B3/GpL16-k0 = 100).

B7: GpH7-A5/GpH7-B3 variant K326_14T/GpL16-k0 (antibody, human IgG1, kappa)
heavy 1: not shown
heavy 2: not shown
light: DIVMTQSPLSLPVTPGEPASISCQASESLVHSNRNTYLHWYLQKPGQSPQLLIYKVSNRFSGVPDRFSGSGSGTDFTLKISRVEAEDVGVYYCSQNTHVPPTFGQGTKVEIERTVAAPSVFIFPPSDEQLKSGTASVVCLLNNFYPREAKVQWKVDNALQSGNSQESVTEQDSKDSTYSLSSTLTLSKADYEKHKVYACEVTHQGLSSPVTKSFNRGEC
notes: as for B2
As for B7, in the test with FcγRIIa R [2], the He/Con_2aR was 134 % of control (GpH7-A5/GpH7-B3/GpL16-k0 = 100).

B8: GpH7-A5/GpH7-B3 variant I332_15Y/GpL16-k0 (antibody, human IgG1, kappa)
heavy 1: not shown
heavy 2: not shown
light: DIVMTQSPLSLPVTPGEPASISCQASESLVHSNRNTYLHWYLQKPGQSPQLLIYKVSNRFSGVPDRFSGSGSGTDFTLKISRVEAEDVGVYYCSQNTHVPPTFGQGTKVEIERTVAAPSVFIFPPSDEQLKSGTASVVCLLNNFYPREAKVQWKVDNALQSGNSQESVTEQDSKDSTYSLSSTLTLSKADYEKHKVYACEVTHQGLSSPVTKSFNRGEC
notes: as for B2
As for B8, the He/Con_2aR with FcγRIIa R [2] was 110 % of control (GpH7-A5/GpH7-B3/GpL16-k0 = 100).

B9: GpH7-A5/GpH7-B3 variant K326_10E/GpL16-k0 (antibody, human IgG1, kappa)
heavy 1: not shown
heavy 2: not shown
light: DIVMTQSPLSLPVTPGEPASISCQASESLVHSNRNTYLHWYLQKPGQSPQLLIYKVSNRFSGVPDRFSGSGSGTDFTLKISRVEAEDVGVYYCSQNTHVPPTFGQGTKVEIERTVAAPSVFIFPPSDEQLKSGTASVVCLLNNFYPREAKVQWKVDNALQSGNSQESVTEQDSKDSTYSLSSTLTLSKADYEKHKVYACEVTHQGLSSPVTKSFNRGEC
notes: as for B2
With B9, in the test with FcγRIIa R [2], the He/Con_2aR is 148 % of control (GpH7-A5/GpH7-B3/GpL16-k0 = 100).

B10: GpH7-A5/GpH7-B3 variant G236_09D/GpL16-k0 (antibody, human IgG1, kappa)
heavy 1: not shown
heavy 2: not shown
light: DIVMTQSPLSLPVTPGEPASISCQASESLVHSNRNTYLHWYLQKPGQSPQLLIYKVSNRFSGVPDRFSGSGSGTDFTLKISRVEAEDVGVYYCSQNTHVPPTFGQGTKVEIERTVAAPSVFIFPPSDEQLKSGTASVVCLLNNFYPREAKVQWKVDNALQSGNSQESVTEQDSKDSTYSLSSTLTLSKADYEKHKVYACEVTHQGLSSPVTKSFNRGEC
notes: as for B2
On to B10, for which the He/Con_2aR with FcγRIIa R [2] is 106 % of control (GpH7-A5/GpH7-B3/GpL16-k0 = 100).

B11: GpH7-A5/GpH7-B3 variant H268_18N/GpL16-k0 (antibody, human IgG1, kappa)
heavy 1: not shown
heavy 2: not shown
light: DIVMTQSPLSLPVTPGEPASISCQASESLVHSNRNTYLHWYLQKPGQSPQLLIYKVSNRFSGVPDRFSGSGSGTDFTLKISRVEAEDVGVYYCSQNTHVPPTFGQGTKVEIERTVAAPSVFIFPPSDEQLKSGTASVVCLLNNFYPREAKVQWKVDNALQSGNSQESVTEQDSKDSTYSLSSTLTLSKADYEKHKVYACEVTHQGLSSPVTKSFNRGEC
notes: as for B2
On to B11, for which, in the test with FcγRIIa R [2], the He/Con_2aR was 128 % of control (GpH7-A5/GpH7-B3/GpL16-k0 = 100).

B12: GpH7-A5/GpH7-B3 variant K326_06M/GpL16-k0 (antibody, human IgG1, kappa)
heavy 1: not shown
heavy 2: not shown
light: DIVMTQSPLSLPVTPGEPASISCQASESLVHSNRNTYLHWYLQKPGQSPQLLIYKVSNRFSGVPDRFSGSGSGTDFTLKISRVEAEDVGVYYCSQNTHVPPTFGQGTKVEIERTVAAPSVFIFPPSDEQLKSGTASVVCLLNNFYPREAKVQWKVDNALQSGNSQESVTEQDSKDSTYSLSSTLTLSKADYEKHKVYACEVTHQGLSSPVTKSFNRGEC
notes: as for B2
For the molecule B12, the He/Con_2aR with FcγRIIa R [2] was 138 % of control (GpH7-A5/GpH7-B3/GpL16-k0 = 100).

B13: GpH7-A5/GpH7-B3 variant H268_13S/GpL16-k0 (antibody, human IgG1, kappa)
heavy 1: not shown
heavy 2: not shown
light: DIVMTQSPLSLPVTPGEPASISCQASESLVHSNRNTYLHWYLQKPGQSPQLLIYKVSNRFSGVPDRFSGSGSGTDFTLKISRVEAEDVGVYYCSQNTHVPPTFGQGTKVEIERTVAAPSVFIFPPSDEQLKSGTASVVCLLNNFYPREAKVQWKVDNALQSGNSQESVTEQDSKDSTYSLSSTLTLSKADYEKHKVYACEVTHQGLSSPVTKSFNRGEC
notes: as for B2
On to B13, for which the He/Con_2aR with FcγRIIa R [2] is 127 % of control (GpH7-A5/GpH7-B3/GpL16-k0 = 100).

B14: GpH7-A5/GpH7-B3 variant I332_10E/GpL16-k0 (antibody, human IgG1, kappa)
heavy 1: not shown
heavy 2: not shown
light: DIVMTQSPLSLPVTPGEPASISCQASESLVHSNRNTYLHWYLQKPGQSPQLLIYKVSNRFSGVPDRFSGSGSGTDFTLKISRVEAEDVGVYYCSQNTHVPPTFGQGTKVEIERTVAAPSVFIFPPSDEQLKSGTASVVCLLNNFYPREAKVQWKVDNALQSGNSQESVTEQDSKDSTYSLSSTLTLSKADYEKHKVYACEVTHQGLSSPVTKSFNRGEC
notes: as for B2
Turning to B14, the He/Con_2aR with FcγRIIa R [2] was 114 % of control (GpH7-A5/GpH7-B3/GpL16-k0 = 100).

B15: GpH7-A5/GpH7-B3 variant H268_10E/GpL16-k0 (antibody, human IgG1, kappa)
heavy 1: not shown
heavy 2: not shown
light: DIVMTQSPLSLPVTPGEPASISCQASESLVHSNRNTYLHWYLQKPGQSPQLLIYKVSNRFSGVPDRFSGSGSGTDFTLKISRVEAEDVGVYYCSQNTHVPPTFGQGTKVEIERTVAAPSVFIFPPSDEQLKSGTASVVCLLNNFYPREAKVQWKVDNALQSGNSQESVTEQDSKDSTYSLSSTLTLSKADYEKHKVYACEVTHQGLSSPVTKSFNRGEC
notes: as for B2
On to B15, for which the He/Con_2aR in the test with FcγRIIa R [2] is 148 % of control (GpH7-A5/GpH7-B3/GpL16-k0 = 100).

B16: GpH7-A5/GpH7-B3 variant I332_04F/GpL16-k0 (antibody, human IgG1, kappa)
heavy 1: not shown
heavy 2: not shown
light: DIVMTQSPLSLPVTPGEPASISCQASESLVHSNRNTYLHWYLQKPGQSPQLLIYKVSNRFSGVPDRFSGSGSGTDFTLKISRVEAEDVGVYYCSQNTHVPPTFGQGTKVEIERTVAAPSVFIFPPSDEQLKSGTASVVCLLNNFYPREAKVQWKVDNALQSGNSQESVTEQDSKDSTYSLSSTLTLSKADYEKHKVYACEVTHQGLSSPVTKSFNRGEC
notes: as for B2
On to B16, for which the He/Con_2aR with FcγRIIa R [2] is 105 % of control (GpH7-A5/GpH7-B3/GpL16-k0 = 100).

The values above are taken from patent publication US20180155451A1 (published 2018).
